Source: patent US20240317858A1 (Adimab, published 2024)
Residue numbers refer to the chain shown, from its start.

B1: Antibody No. A003 (ADI-26913) Fab (Fab, V domains shown)
VH: QVQLVQSGAEVKKPGASVKVSCKASGFNIKDYYMHWVRQAPGQRLEWMGWIDLENANTIYDAKFQGRVTITRDTSASTAYMELSSLRSEDTAVYYCARDQYGRYFYDVWGQGTLVTVSS
VL: DIVMTQSPDSLAVSLGERATINCKSSQSLLNARTGKNYLAWYQQKPGQPPKLLIYWASTRESGVPDRFSGSGSGTDFTLTISSLQAEDVAVYYCKQSYSRRTFGGGTKVEIK
notes: Fab by papain digestion of the IgG1
B2: Antibody No. V017 (ADI-76360) Fab (Fab, V domains shown)
VH: B1 VH with N57D, A97G, Q100A
VL: B1 VL with R100L
notes: as for B1
B3: Antibody No. V014 (ADI-76357) Fab (Fab, V domains shown)
VH: B1 VH with N28D
VL: B1 VL
notes: as for B1
B4: Antibody No. A005 (ADI-26921) Fab (Fab, V domains shown)
VH: B1 VH with N55E, A56G, Q100A
VL: B1 VL with R100L
notes: as for B1
B5: Antibody No. V019 (ADI-76362) Fab (Fab, V domains shown)
VH: B1 VH with N55E, A56G, N57D, Q100A
VL: B1 VL with R100L
notes: as for B1
B6: Antibody No. A004 (ADI-26920) Fab (Fab, V domains shown)
VH: B1 VH with A97G, Q100A
VL: B1 VL with R100L
notes: as for B1
B7: Antibody No. V018 (ADI-76361) IgG1 (antibody, V domains shown)
VH: B1 VH with N28D, N55E, A56G, Q100A
VL: B1 VL with R100L
notes: IgG1, CHO-produced
B8: Antibody No. A005 (ADI-26921) IgG1 (antibody, V domains shown)
VH: B1 VH with N55E, A56G, Q100A
VL: B1 VL with R100L
notes: IgG1, CHO-produced
B9: Antibody No. V016 (ADI-76359) IgG1 (antibody, V domains shown)
VH: B1 VH with N28D, A97G, Q100A
VL: B1 VL with R100L
notes: IgG1, CHO-produced
B10: Antibody No. V017 (ADI-76360) IgG1 (antibody, V domains shown)
VH: B1 VH with N57D, A97G, Q100A
VL: B1 VL with R100L
notes: IgG1, CHO-produced
B11: Antibody No. A003 (ADI-26913) IgG1 (antibody, V domains shown)
VH: B1 VH
VL: B1 VL
notes: IgG1, CHO-produced
B12: Antibody No. V019 (ADI-76362) IgG1 (antibody, V domains shown)
VH: B1 VH with N55E, A56G, N57D, Q100A
VL: B1 VL with R100L
notes: IgG1, CHO-produced
B13: Antibody No. A004 (ADI-26920) IgG1 (antibody, V domains shown)
VH: B1 VH with A97G, Q100A
VL: B1 VL with R100L
notes: IgG1, CHO-produced
B14: Antibody No. V014 (ADI-76357) IgG1 (antibody, V domains shown)
VH: B1 VH with N28D
VL: B1 VL
notes: IgG1, CHO-produced
B15: Antibody No. V015 (ADI-76358) IgG1 (antibody, V domains shown)
VH: B1 VH with N57D
VL: B1 VL
notes: IgG1, CHO-produced

The binders below were run against T1, Cynomolgus CD3εδ Fc heterodimer (Cy CD3ε Fc + CD3δ Fc-HIS) (cynomolgus, UniProt Q95LI5 22-117; Q95LI8 22-100) (assay: BLI (Octet), Fab monovalent, pH 7.4).
T1 construct: range 22-117;range 22-100; Made in HEK 293 cells with a heterologous signal peptide; also called Cy CD3εδ-Fc; cyno CD3εδ Fc; not shown: Fc; Fc followed by HIS tag
Experimental: (§1) ForteBio KD measurements (Biolayer interferometry; BLI). ForteBio affinity measurements were performed generally as previously described (Estep, P., et al., High throughput solution-based measurement of antibody-antigen affinity and epitope binning. MAbs, 2013. 5(2): p. 270-8.). Briefly, ForteBio affinity measurements were performed by loading IgGs or CD3εδ Fe-HIS heterodimer onto AHC sensors. Sensors were equilibrated off-line in assay buffer for 30 min and then monitored on-line for 60 seconds for baseline establishment. Sensors with loaded IgGs were exposed to 100 nM antigen (e.g., CD3) for 3 min, afterwards they were transferred to assay buffer for 10 min for off-rate measurement. Sensors loaded with CD3εδ Fe-HIS heterodimer were exposed to 100 nM anti-CD3 Fab for 3 min, afterwards they were transferred to assay buffer for 3 min or 10 min for off-rate measurement. Kinetics were analyzed using the 1:1 binding model. For measuring binding at different pHs, measurements were performed at pre-determined pHs (e.g., pH 7.4 and pH 6.0).
(§2) Anti-CD3 antibodies A001-A005, V002, V004, V007, V009, V010, V013, and V014-V019 were produced as IgG1s in CHO cells, and Fab fragments were generated from IgG1 antibodies by papain digestion and purification as described in Example 2. Human, cynomolgus, rhesus, and mouse CD3εδ Fc heterodimers were produced, and monovalent binding affinity and avidity at pH 7.4 and pH 6.0 were measured using the Octet® HTX instrument (ForteBio) as described in Example 2.

T1 sequence (Q95LI5 22-117, stated change not applied, form in doubt, chain 1 of 2): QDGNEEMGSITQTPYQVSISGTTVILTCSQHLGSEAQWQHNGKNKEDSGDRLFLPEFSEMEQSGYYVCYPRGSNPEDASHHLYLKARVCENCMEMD
T1 sequence (Q95LI8 22-100, stated change not applied, form in doubt, chain 2 of 2): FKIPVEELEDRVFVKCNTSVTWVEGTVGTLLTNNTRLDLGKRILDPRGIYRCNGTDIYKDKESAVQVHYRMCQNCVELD

| Kd [nM] | Binder |
| --- | --- |
| 28 | B1 |
| 96 | B2 |
| 39 | B3 |
| 39 | B4 |
| 34 | B5 |
| 50 | B6 |

These binders were tested against T2, Human CD3εδ Fc heterodimer (Hu CD3ε Fc + CD3δ Fc-HIS) (human, UniProt P07766 22-126; P04234 22-100) (assay: BLI (Octet), Fab monovalent, pH 7.4).
T2 construct: range 22-126;range 22-100; Made in HEK 293 cells with a heterologous signal peptide; also called Hu CD3εδ-Fc; CD3εδ Fc-HIS heterodimer; not shown: Fc; Fc followed by HIS tag
Experimental: as §1, §2

T2 sequence (P07766 22-126, stated change not applied, form in doubt, chain 1 of 2): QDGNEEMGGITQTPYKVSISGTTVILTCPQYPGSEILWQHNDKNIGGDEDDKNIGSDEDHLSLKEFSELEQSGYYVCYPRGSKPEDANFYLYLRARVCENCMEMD
T2 sequence (P04234 22-100, stated change not applied, form in doubt, chain 2 of 2): as the sequence (Q95LI8 22-100, stated change not applied, form in doubt, chain 2 of 2) above, with V5I, K15N, V20I, T32S, N33D, N34I, A64T, N74S counted along it

| Kd [nM] | Binder |
| --- | --- |
| 35 | B1 |
| 420 | B2 |
| 44 | B3 |
| 78 | B4 |
| 64 | B5 |
| 42 | B6 |

The binders below were run against T3, Rhesus CD3εδ Fc heterodimer (rhesus) (assay: BLI (Octet), Fab monovalent, pH 7.4).
T3 construct: extracellular domain; also called Rh CD3εδ-Fc
Experimental: as §1, §2

| Kd [nM] | Binder |
| --- | --- |
| 33 | B1 |
| 39 | B3 |
| 36 | B4 |
| 79 | B5 |
| 51 | B6 |

These binders were tested against T1, Cynomolgus CD3εδ Fc heterodimer (Cy …) (assay: SPR (Biacore), Fab over immobilized CD3εδ Fc, pH 7.4).
Experimental: (§3) Anti-CD3 antibodies A001-A005, V002, V004, V007, V009, V010, V013, and V014-V019 were produced in CHO cells, and Fab fragments were generated from IgG1 antibodies by papain digestion and purification as described in Example 2. Monovalent binding affinity at pH 7.4 and pH 6.0 was measured via surface plasmon resonance (SPR). Briefly, human or cynomolgus CD3εδ Fe heterodimer produced as described in Example 2 was immobilized to a CM5 sensor chip in a Biacore® X100 (Cytiva, previously GE Healthcare Life Sciences) to a response level of ˜500 RUs. Fabs were then injected at 3-fold increasing concentrations, ranging from 0.74-180 nM. The sensor chip was doubly regenerated between cycles using 0.35 M EDTA and 0.1 M NaOH. The resulting data were double reference subtracted and fit to a 1:1 binding model using Biacore® Evaluation Software.

| Kd [nM] | Binder |
| --- | --- |
| 9.3 | B1 |
| 16 | B2 |
| 11 | B3 |
| 33 | B4 |
| 9 | B6 |

Each binder was assayed against T2, Human CD3εδ Fc heterodimer (Hu CD3ε Fc …) in the same assay as above.
Experimental: as §3

| Kd [nM] | Binder |
| --- | --- |
| 9.9 | B1 |
| 19 | B2 |
| 11 | B3 |
| 24 | B4 |
| 10 | B6 |

What follows are binders tested against T1, Cynomolgus CD3εδ Fc heterodimer (Cy …) (assay: SPR (Biacore), Fab over immobilized CD3εδ Fc, pH 6.0).
Experimental: as §3

| Kd [nM] | Binder |
| --- | --- |
| 11 | B1 |
| 26 | B2 |
| 12 | B3 |
| 24 | B4 |
| 29 | B5 |
| 15 | B6 |

The binders below were run against T2, Human CD3εδ Fc heterodimer (Hu CD3ε Fc …) in the same assay as above.
Experimental: as §3

| Kd [nM] | Binder |
| --- | --- |
| 11 | B1 |
| 25 | B2 |
| 12 | B3 |
| 20 | B4 |
| 33 | B5 |
| 16 | B6 |

What follows are binders tested against T4, Cynomolgus CD3 on HSC-F cells (cynomolgus, UniProt Q95LI5 22-198) (assay: flow cytometry, 100 nM IgG1, pH 7.4).
T4 construct: whole, on cells; Target is the endogenous CD3 complex on cells; also called Cyno CD3 HSC-F cells; Cyno CD3+ HSC-F cells
Experimental: (§4) Cell binding assays. CD3+ human Jurkat cells (ATCC) and CHO-S cells (Invitrogen/ThermoFisher) were thawed and washed with cold PBSF buffer, pH 7.4 (PBS+0.1% BSA, pH 7.4). About 200,000 cells were aliquoted per well of a 96-well plate (FACS Assay Plate VWR BD 353263) and pelleted by centrifugation (5 minutes at 500×g). The cells were washed with either PBSF pH 7.4 or PBSF pH 6.0 (PBS+0.1% BSA, pH 6.0), and then resuspended in 100 μl in either PBSF pH 7.4 or PBSF pH 6.0 with IgG1 antibody (100 nM) produced in yeast as described above or in CHO cells. The mixture (cells+antibody) was incubated for 20 minutes on ice, then washed twice with either PBSF pH 7.4 or PBSF pH 6.0. Cells were resuspended in 50 μl of propidium iodide (Roche; 1:500 dilution) and anti-human IgG-RPE (Southern Biotech; 1:100 dilution) prepared in either PBSF pH 7.4 or PBSF pH 6.0, then incubated for 20 minutes on ice in the dark before cells were washed twice with either PBSF pH 7.4 or PBSF pH 6.0. Binding was analyzed on FACS Canto II.
(§5) Anti-CD3 antibodies A001-A005, V002, V004, V007, V009, V010, V013, and V014-V019 were produced as IgG1s in CHO cells, and binding to human CD3+ Jurkat cells and cynomolgus CD3+ HSC-F cells at pH 7.4 was analyzed by flow cytometry as described in Example 2. NCB (Normalized Cell Binding) values were calculated based on control and sample MFI values as NCB={(Sample MFI)−(Secondary only MFI)}/(Secondary only MFI).

T4 sequence (Q95LI5 22-198): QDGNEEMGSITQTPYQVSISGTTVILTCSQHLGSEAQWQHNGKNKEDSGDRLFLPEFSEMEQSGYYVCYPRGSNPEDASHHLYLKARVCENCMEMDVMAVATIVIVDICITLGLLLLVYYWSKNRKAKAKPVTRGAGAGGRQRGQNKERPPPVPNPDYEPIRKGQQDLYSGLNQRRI

| NCB (Normalized Cell Binding) | Binder |
| --- | --- |
| 378 | B7 |
| 364 | B8 |
| 374 | B9 |
| 376 | B10 |
| 367 | B11 |
| 373 | B12 |
| 348 | B13 |
| 377 | B14 |
| 369 | B15 |

What follows are binders tested against T5, Human CD3 on CD3+ Jurkat cells (human, UniProt P07766 23-207) (assay: flow cytometry, 100 nM IgG1, pH 7.4).
T5 construct: whole, on cells; Target is the endogenous CD3 complex on cells; also called Human CD3+ Jurkat cells
Experimental: as §4, §5

T5 sequence (P07766 23-207): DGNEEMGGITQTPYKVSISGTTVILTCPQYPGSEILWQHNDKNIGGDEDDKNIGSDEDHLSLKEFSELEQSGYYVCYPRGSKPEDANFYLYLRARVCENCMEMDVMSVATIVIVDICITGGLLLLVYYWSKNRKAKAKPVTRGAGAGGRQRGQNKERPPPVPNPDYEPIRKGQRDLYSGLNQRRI

| NCB (Normalized Cell Binding) | Binder |
| --- | --- |
| 223 | B7 |
| 206 | B8 |
| 314 | B9 |
| 325 | B10 |
| 209 | B11 |
| 328 | B12 |
| 240 | B13 |
| 349 | B14 |
| 334 | B15 |

These binders were tested against T1, Cynomolgus CD3εδ Fc heterodimer (Cy …) (assay: BLI (Octet), Fab monovalent, pH 6.0).
Experimental: as §1, §2

| Kd [nM] | Binder |
| --- | --- |
| 32 | B1 |
| 34 | B2 |
| 21 | B3 |
| 45 | B4 |
| 21 | B5 |
| 23 | B6 |

The binders below were run against T2, Human CD3εδ Fc heterodimer (Hu CD3ε Fc …) (assay: BLI (Octet), Fab monovalent, pH 6.0).
Experimental: as §1, §2

| Kd [nM] | Binder |
| --- | --- |
| 29 | B1 |
| 58 | B2 |
| 24 | B3 |
| 35 | B4 |
| 36 | B5 |
| 29 | B6 |
